Laboratory results as given in article PMC10156769, “The novel anti-cancer fluoropyrimidine NUC-3373 is a potent inhibitor of thymidylate synthase and an effective DNA-damaging agent” (Cancer Chemotherapy and Pharmacology, 2023).

Tests used:
purified protein = substrate: O=c1ccn([C@H]2C[C@H](O)[C@@H](COP(=O)(O)OP(=O)(O)OP(=O)(O)O)O2)c(=O)[nH]1; experiment: purified protein; details: Mg2+ ([…] MgCl2 in the assay buffer)
[1] = substrate: O=c1[nH]c(=O)n([C@H]2C[C@H](O)[C@@H](COP(=O)(O)OP(=O)(O)OP(=O)(O)O)O2)cc1F; experiment: EnzChek pyrophosphate coupled assay, Michaelis-Menten substrate kinetics (KM); assay type: biochemical, Homo sapiens; details: Mg2+ ([…] MgCl2 in the assay buffer)

B1: dUTPase (Deoxyuridine triphosphate nucleotidohydrolase) (Homo sapiens) (protein)
chain: ASTVGAAGWKGELPKAGGSPAPGPETPAISPSKRARPAEVGGMQLRFARLSEHATAPTRGSARAAGYDLYSAYDYTIPPMEKAVVKTDIQIALPSGCYGRVAPRSGLAAKHFIDVGAGVIDEDYRGNVGVVLFNFGKEKFEVKKGDRIAQLICERIFYPEIEEVQALDDTERGSGGFGSTGKN
Purified protein
  Km: 3.2 ± 1.8 µM
[1]
  Km: 19.1 ± 6.7 µM
